The target in the assay is T1, human LAG3 (Lymphocyte Activation Gene-3) expressed on cells (human, UniProt P18627 23-525).
T1 sequence: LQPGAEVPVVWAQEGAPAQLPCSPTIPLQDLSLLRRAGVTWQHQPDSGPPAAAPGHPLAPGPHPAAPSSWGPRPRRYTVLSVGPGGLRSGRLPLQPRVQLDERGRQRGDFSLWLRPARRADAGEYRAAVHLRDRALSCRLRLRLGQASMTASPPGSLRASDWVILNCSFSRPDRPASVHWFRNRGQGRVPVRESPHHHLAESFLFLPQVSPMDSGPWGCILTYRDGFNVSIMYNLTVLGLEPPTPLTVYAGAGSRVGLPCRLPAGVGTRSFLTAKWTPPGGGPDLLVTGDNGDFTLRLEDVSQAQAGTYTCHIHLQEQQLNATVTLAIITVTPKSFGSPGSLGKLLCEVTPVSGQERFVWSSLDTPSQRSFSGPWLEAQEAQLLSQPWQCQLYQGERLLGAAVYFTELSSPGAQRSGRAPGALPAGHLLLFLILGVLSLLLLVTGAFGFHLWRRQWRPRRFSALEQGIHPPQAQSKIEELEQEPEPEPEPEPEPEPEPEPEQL
Briefly: cell-based or functional assay.

The results in this text go back to patent US20190083615A1 (Merck Sharp & Dohme, published 2019).

B1: Ab6: humanized light chain 45AGX Humanized x[LAG3_H] mAb (LB145.22D2.E1.D1 (VL3)) Kappa (PX) and humanized heavy chain 73AHD Humanized x[LAG3_H] mAb … (antibody)
heavy: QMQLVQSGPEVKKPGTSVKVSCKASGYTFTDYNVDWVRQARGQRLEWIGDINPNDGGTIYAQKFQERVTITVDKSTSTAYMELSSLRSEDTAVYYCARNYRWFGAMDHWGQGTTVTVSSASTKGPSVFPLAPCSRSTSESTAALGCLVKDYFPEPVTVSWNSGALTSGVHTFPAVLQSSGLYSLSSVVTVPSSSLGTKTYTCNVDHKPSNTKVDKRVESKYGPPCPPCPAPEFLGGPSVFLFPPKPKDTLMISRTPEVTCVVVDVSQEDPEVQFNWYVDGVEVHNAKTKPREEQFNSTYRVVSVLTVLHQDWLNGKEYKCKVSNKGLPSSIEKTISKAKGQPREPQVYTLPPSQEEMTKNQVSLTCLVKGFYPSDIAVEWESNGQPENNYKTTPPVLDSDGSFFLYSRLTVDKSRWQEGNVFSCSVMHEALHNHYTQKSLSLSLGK
light: DIVMTQTPLSLSVTPGQPASISCKASQSLDYEGDSDMNWYLQKPGQPPQLLIYGASNLESGVPDRFSGSGSGTDFTLKISRVEAEDVGVYYCQQSTEDPRTFGGGTKVEIKRTVAAPSVFIFPPSDEQLKSGTASVVCLLNNFYPREAKVQWKVDNALQSGNSQESVTEQDSKDSTYSLSSTLTLSKADYEKHKVYACEVTHQGLSSPVTKSFNRGEC
notes: Humanized 22D2 N55D, IgG4 S228P/kappa; also called Hu22D2 VH6/VL3 N55D (Ab 6); hu22D2 VH6/VL3 N55D
In the case of B1, the “IL-2 production by SEB-stimulated PBMC in combination with anti-PD1, fold over anti-PD-1 alone plus isotype control” value came out at 1.45 fold and the “IL-2 production by SEB-stimulated PBMC, fold over isotype control” value worked out at 1.54 fold.
